The target in assay [1] is taxol-stabilized microtubules made from PC tubulin. Description: microtubule pelleting assay, gel densitometry, fitted; 30 µM polymerized tubulin.
Assay [2] has the same target. Description: microtubule pelleting assay after brain extract phosphorylation.
For assay [3] the target is unchanged. Description: co-sedimentation of tau with taxol-stabilized microtubules, SDS gel densitometry, fitted binding curve.
Assay [4] has the same target. Kind of assay: co-sedimentation of tau with taxol-stabilized microtubules (30 µM polymerized tubulin), SDS gel densitometry, fitted binding curve.
The target is the same in assay [5]. Kind of assay: co-sedimentation of tau with microtubules made from 10 µM tubulin in 20 µM taxol, fitted binding curve.
The target is the same in assay [6]. Description: microtubule pelleting assay, microtubules from 10 µM tubulin with 20 µM taxol.
For assay [7] the target is unchanged. Kind of assay: microtubule pelleting assay after 90 min phosphorylation.
Assay [8] shares this target. Kind of assay: co-sedimentation of tau with microtubules in taxol, fitted binding curve (control curve).
Assay [9] shares this target. Kind of assay: microtubule pelleting assay after 35 kDal kinase, fitted.
Assay [10] has the same target. Kind of assay: microtubule pelleting assay after 35 kDal kinase.
Assay [11] has the same target. Kind of assay: microtubule pelleting assay, gel densitometry, fitted.
Assay [12] shares this target. Description: microtubule pelleting assay after MAP kinase.

As a reminder, the Kd is the concentration at which binding is half-saturated. High values mean weaker binding, low ones tighter binding.

As for “htau23 mutant Ser202-Ala phosphorylated with brain extract (from UniProt P10636 1-352)”, in assay [1], the Kd stood at 9.4 µM and the stoichiometry n (tau/tubulin dimer) (tau/tubulin dimer) is 0.31.

Take “htau40 phosphorylated by the brain extract kinase activity (from UniProt P10636 2-758)”: in assay [2], the difference in stoichiometry upon phosphorylation (Dn) (tau/tubulin dimer) was 0.31. In assay [3], this substance showed a dissociation constant (Kd) of 9.6 µM and a n of 0.15.

Regarding “htau34 phosphorylated by the brain extract kinase activity (stage 2-3, up to 24 h) (from UniProt P10636 2-412)”, in assay [4], the Kd came out at 10.4 µM and the n worked out at 0.16.

On to “htau23 phosphorylated with GSK3 (from UniProt P10636 2-352)”, for which, in assay [5], the Kd is 2400 nM and the n is 0.6. Moreover, the stoichiometry (tau per tubulin dimer) (per tubulin dimer) in assay [6] came out at 0.6.

In assay [7], “S404-A mutant of htau34 after 90 min of phosphorylation by the brain extract kinase activity (from UniProt P10636 1-412)” came in with a fold decrease of stoichiometry against the unphosphorylated mutant of 2 fold.

Take “htau23 phosphorylated by the brain extract kinase activity (stage 2-3, up to 24 h) (from UniProt P10636 2-352)”: in [1], the Kd was found to be 4.9 µM and the stoichiometry n (tau/tubulin dimer) (tau/tubulin dimer) turned out to be 0.16. In [8], the Kd was 4.9 µM and the n came to 0.16. The same substance had a difference in stoichiometry upon phosphorylation (Dn) (tau/tubulin dimer) in assay [2] of 0.33. Also, in [4], the Kd was found to be 4.9 µM and the n was 0.16.

Turning to “htau23 phosphorylated by the 35 kDal kinase (from UniProt P10636 2-352)”, in [9], the Kd stood at 8.8 µM and the stoichiometry n (tau/tubulin dimer) (tau/tubulin dimer) is 0.21. In addition, in assay [10], the reduction in stoichiometry upon phosphorylation (Dn) (tau/tubulin dimer) was 0.28.

As to “human tau isoform htau34, bacterially expressed, unphosphorylated (from UniProt P10636 2-412)”, in assay [4], the Kd came out at 1.4 µM and the n is 0.43. Further, the Kd in [11] fell in the range of 1 to 2 µM.

In assay [2], “htau23/A404 phosphorylated by the brain extract kinase activity (from UniProt P10636 1-352)” came in with a Dn as percent of the unmutated control of 52% and a difference in stoichiometry upon phosphorylation (Dn) (tau/tubulin dimer) of 0.17. Also, in assay [3], the Kd was 9.3 µM and the n was 0.32.

For “htau23 mutant Ser262-Ala phosphorylated with brain extract (from UniProt P10636 1-352)”, the difference in stoichiometry upon phosphorylation (Dn) (tau/tubulin dimer) in assay [2] is 0.04.

In assay [3], “human tau isoform htau40, bacterially expressed, unphosphorylated (from UniProt P10636 2-758)” came in with a Kd of 1.1 µM and a n of 0.46.

As for “htau40 phosphorylated with MAP kinase (from UniProt P10636 2-758)”, in assay [3], the Kd was 1.9 µM and the n came out at 0.37. The substance further came in with a difference in stoichiometry upon phosphorylation (Dn) (tau/tubulin dimer) in [12] of 0.09.

In assay [2], “AP18 phosphorylated with the brain extract activity (from UniProt P10636 1-352)” came in with a difference in stoichiometry upon phosphorylation (Dn) (tau/tubulin dimer) of 0.01. In assay [11], this substance showed a Kd of 6.1 µM and a stoichiometry n (tau/tubulin dimer) (tau/tubulin dimer) of 0.48.

In turn, “htau34 phosphorylated by the brain extract kinase activity for 90 min (stage 1) (from UniProt P10636 2-412)” registered a fold decrease of stoichiometry against unphosphorylated htau34 in [7] of 3 fold.

In assay [3], “htau23/A404 (Ser404 replaced by Ala), unphosphorylated (from UniProt P10636 1-758)” gave a Kd of 4.3 µM and a n of 0.54.
